Experimental data published in publication doi:10.1101/2020.05.20.105668.

Legend:
[1] = target: s10_(long) WT peptide L195[…]212; test: peptide or protein array
[2] = target: s10_(long) H199Y; test: peptide or protein array
[3] = target: s10_(long) H199Y/L207V; test: peptide or protein array
[4] = target: s10_(long) H199Y/T203F; test: peptide or protein array
[5] = target: LOO10-GFP (circularly permuted superfolder GFP with strand 10 removed); test: other fluorescence titration
[6] = target: LOO10-GFP (circularly permuted superfolder GFP with strand 10 removed); test: fluorescence complementation
[7] = target: LOO10-GFP (circularly permuted superfolder GFP with strand 10 removed); test: competition experiment followed by fluorescence

LOO10-GFP (circularly permuted superfolder GFP with strand 10 removed) (domain or fragment)
mean microarray fluorescence [1]: 741 FU | fold microarray fluorescence compared to WT [2]: 10 fold | fold microarray fluorescence compared to WT [3]: 3 fold | fold microarray fluorescence compared to WT [4]: 54 fold

NYYLSTQTVLS [s10_(short) H199Y peptide]
fold increase in affinity compared to WT [5]: 5 fold

NYYLSYQTVLS [s10_(short) H199Y/T203Y peptide]
fold increase in affinity compared to WT [5]: 9 fold

NHYLSYQTVLS [s10_(short) T203Y peptide]
fold increase in affinity compared to WT [5]: 2 fold

NHYLSTQTVLS [s10_(short) WT peptide N198…208]
fold increase in 520 nm signal on complementation [6]: 5 fold

LPDNHYLSTQTVRSKDPNE [s10 L207R peptide, long format (free 19-mer)]
fold weaker affinity than WT (approximated) [7]: > 10 fold
